According to the supplement of paper PMC7877785:
± gives the uncertainty stated by the source.

Assay: self-splicing fitness, log relative to wild type (ln ratio); higher = more splicing; Tetrahymena group I intron in knt gene, E. coli kanamycin selection, DiMSum; sequences stand for … in CUCUCU…GGAGGGAAAAGUUAUCAGGCAUGCACCUGGUAGCUAGUCUUUAAACCAAUAGAUUGCAUCGGUUUAAAAGGCAAGACCGUCAAAUUGCGGGAAAGGGGUCAACAGCCGUUCAGUACCAAGUCUCAGGGGAAACUUUGAGAUGGCCUUGCAAAGGGUAUGGUAAUAAGCUGACGGACAUGGUCCUAACCACGCAGCCAAGUCCUAAGUCAACAGAUCUUCUGUUGAUAUGGAUGCAGUUCACAGACUAAAUGUCGGUCGGGGAAGAUGUAUUCUUCUCAUAAGAUAUAGUCGGACCUCUCCUUAAUGGGAGCUAGCGGAUGAAGUGAUGCAACACUGGAGCCGCUGGGAACUAAUUUGUAUGCGAAAGUAUAUUGAUUAGUUUUGGAGUACUCGUGGUCG
Summary of the method: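 Library with all eight P1ex-region intron nucleotides randomised, intron inside the knt kanamycin-resistance gene on pET-22b(+), in E. coli BL21(DE3). Cells grew overnight at 37°C or 30°C on LB agar with or without 25 μg/mL kanamycin (plus 100 μg/mL carbenicillin, 50 μM IPTG, 0.2% rhamnose), in six replicate transformations. Pooled colonies were amplicon-sequenced on Illumina HiSeq 2500. DiMSum fitness is the error-weighted combination of wild-type-normalised replicate fold changes, kanamycin versus none.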

Row | Sequence | self-splicing fitness (ln) (30 °C) | self-splicing fitness (ln) (37 °C)
1 | UUAAAGCAAUAUUACGACAG | 0.285 ± 0.1 | 0.0597 ± 0.14
2 | CGACAGCAAUAUUACGUUUC | -3.98 ± 0.24 | -2.23 ± 0.15
3 | CGAUAGCAAUAUUACGGAAG | -1.53 ± 0.083 | -0.509 ± 0.11
4 | UAUUAGCAAUAUUACGCAUC | -3.67 ± 0.31 | -1.7 ± 0.3
5 | CCCCAGCAAUAUUACGGUAA | -3.78 ± 0.15 | -2.78 ± 0.16
6 | CGCCAGCAAUAUUACGUCCU | -4.8 ± 0.36 | -2.45 ± 0.31
7 | AUAUAGCAAUAUUACGUUUA | -2.02 ± 0.25 | -1.63 ± 0.2
8 | AUAAAGCAAUAUUACGGUCU | -0.245 ± 0.061 | 0.47 ± 0.088
9 | GCUAAGCAAUAUUACGGUCC | -1.4 ± 0.22 | -0.541 ± 0.3
10 | UUUGAGCAAUAUUACGGAAC | -1.63 ± 0.16 | -1.2 ± 0.24
11 | AAUGAGCAAUAUUACGUGUU | -4.51 ± 0.23 | -2.85 ± 0.22
12 | UAGCAGCAAUAUUACGUUAG | -3.08 ± 0.12 | -1.34 ± 0.13
13 | GUAAAGCAAUAUUACGAACC | -2.39 ± 0.29 | -2.8 ± 0.36
14 | GACCAGCAAUAUUACGCGCC | -0.0376 ± 0.14 | -0.617 ± 0.18
15 | AAAGAGCAAUAUUACGACAA | -2.27 ± 0.23 | -2.95 ± 0.38
16 | UCAAAGCAAUAUUACGAAGG | -2.26 ± 0.1 | -1.05 ± 0.13
17 | GAAAAGCAAUAUUACGAAUU | -1.37 ± 0.11 | -0.667 ± 0.12
18 | GGCAAGCAAUAUUACGACGG | -2.85 ± 0.16 | -2.72 ± 0.2
19 | CCUCAGCAAUAUUACGUAUG | -1.75 ± 0.075 | -0.495 ± 0.079
20 | GAUUAGCAAUAUUACGCCGC | -3.47 ± 0.24 | -2.28 ± 0.21
21 | UCUGAGCAAUAUUACGUCCA | -2.33 ± 0.3 | -1.68 ± 0.38
22 | GUUUAGCAAUAUUACGAUCG | -1.61 ± 0.13 | -0.512 ± 0.19
23 | UAGCAGCAAUAUUACGGAUU | -3.22 ± 0.14 | -1.08 ± 0.13
24 | CUGUAGCAAUAUUACGUAUG | -0.387 ± 0.11 | -0.224 ± 0.16
25 | UGUAAGCAAUAUUACGACCU | -0.205 ± 0.13 | -0.0468 ± 0.12

Row | Sequence | self-splicing fitness (ln) (30 °C) | self-splicing fitness (ln) (37 °C)
26 | CCGUAGCAAUAUUACGGUAU | -4.05 ± 0.21 | -2.85 ± 0.2
27 | AUGAAGCAAUAUUACGUGCA | -0.0826 ± 0.093 | 0.364 ± 0.11
28 | GAAUAGCAAUAUUACGAUUC | -2.67 ± 0.14 | -2.24 ± 0.2
29 | CCAUAGCAAUAUUACGGUAC | -3.2 ± 0.19 | -3.05 ± 0.27
30 | UGAUAGCAAUAUUACGCCGG | -1.5 ± 0.22 | 0.564 ± 0.23
31 | AAGGAGCAAUAUUACGCCCU | -1.87 ± 0.35 | -1.91 ± 0.43
32 | UCAUAGCAAUAUUACGUCAG | -2.96 ± 0.18 | -1.36 ± 0.15
33 | AUGUAGCAAUAUUACGAGUC | -2.95 ± 0.23 | -3.28 ± 0.4
34 | AUCAAGCAAUAUUACGGGCU | -1.86 ± 0.079 | -0.884 ± 0.087
35 | UUCAAGCAAUAUUACGUACA | -0.901 ± 0.11 | -0.478 ± 0.13
36 | GGAAAGCAAUAUUACGCGUU | -3.16 ± 0.16 | -2.49 ± 0.19
37 | CACAAGCAAUAUUACGGACC | -3.41 ± 0.24 | -1.73 ± 0.2
38 | CAUGAGCAAUAUUACGUCGU | -3.75 ± 0.18 | -3.34 ± 0.19
39 | CCAAAGCAAUAUUACGACCA | -3.08 ± 0.34 | -1.78 ± 0.45
40 | AUAGAGCAAUAUUACGUAAU | -0.582 ± 0.1 | 0.244 ± 0.12
41 | CCUUAGCAAUAUUACGUGUC | -2.66 ± 0.26 | -0.776 ± 0.21
42 | UCACAGCAAUAUUACGAUUG | -2.97 ± 0.12 | -1.34 ± 0.11
43 | CAGAAGCAAUAUUACGGUCC | -2.94 ± 0.33 | –
44 | GCAGAGCAAUAUUACGUUAU | -2.65 ± 0.46 | -2.44 ± 0.44
45 | GGCGAGCAAUAUUACGGCGC | -2.51 ± 0.29 | -2.52 ± 0.37
46 | UAAGAGCAAUAUUACGUAAG | -3.02 ± 0.2 | -2.1 ± 0.21
47 | ACGUAGCAAUAUUACGUACA | -2.02 ± 0.25 | -0.998 ± 0.22
48 | AGCCAGCAAUAUUACGCUGU | -3.57 ± 0.2 | -3.32 ± 0.19
49 | UUUAAGCAAUAUUACGGCUU | -1.8 ± 0.14 | -1.86 ± 0.27
50 | CUUCAGCAAUAUUACGAUGA | -4.12 ± 0.42 | -1.71 ± 0.25

Row | Sequence | self-splicing fitness (ln) (30 °C) | self-splicing fitness (ln) (37 °C)
51 | CUUGAGCAAUAUUACGAAUA | -3.26 ± 0.48 | –
52 | UGGUAGCAAUAUUACGGGUU | -4.12 ± 0.18 | -3.49 ± 0.24
53 | UCGAAGCAAUAUUACGCGCA | 0.425 ± 0.26 | -0.635 ± 0.21
54 | AGACAGCAAUAUUACGUUUU | -3 ± 0.13 | -3.77 ± 0.24
55 | ACCCAGCAAUAUUACGUCAA | -1.88 ± 0.099 | -1.59 ± 0.11
56 | CUGGAGCAAUAUUACGCCUG | -1.22 ± 0.22 | -1.39 ± 0.28
57 | ACAAAGCAAUAUUACGACAA | -0.955 ± 0.15 | -0.443 ± 0.13
58 | CUGCAGCAAUAUUACGAUAC | -2.99 ± 0.34 | –
59 | UGGUAGCAAUAUUACGUAAC | -2.08 ± 0.45 | –
60 | GCUUAGCAAUAUUACGAUUG | -3.31 ± 0.25 | -1.01 ± 0.17
61 | AUCUAGCAAUAUUACGAAUA | – | -0.668 ± 0.32
62 | CGGAAGCAAUAUUACGCCCG | -2.86 ± 0.36 | –
63 | ACAUAGCAAUAUUACGGUGU | -3.8 ± 0.21 | -3.54 ± 0.3
64 | CGUAAGCAAUAUUACGCGGA | -3.23 ± 0.19 | -1.84 ± 0.16
65 | GACUAGCAAUAUUACGGGCG | -0.65 ± 0.061 | -0.282 ± 0.071
66 | CGGAAGCAAUAUUACGGCGU | -1.96 ± 0.16 | -1.04 ± 0.22
67 | CUUUAGCAAUAUUACGUCAC | – | -0.481 ± 0.4
68 | UUAGAGCAAUAUUACGGGUA | -3.06 ± 0.22 | -1.62 ± 0.19
69 | CCUGAGCAAUAUUACGUGUC | -4.13 ± 0.21 | -2 ± 0.13
70 | UCUAAGCAAUAUUACGGGGU | -2.9 ± 0.26 | -2.45 ± 0.21
71 | GGCAAGCAAUAUUACGUUGA | -0.666 ± 0.066 | -0.307 ± 0.092
72 | AUUAAGCAAUAUUACGGGGC | -3 ± 0.21 | -1.98 ± 0.26
73 | AAUAAGCAAUAUUACGUCCU | -0.0473 ± 0.076 | 0.0333 ± 0.088
74 | UACUAGCAAUAUUACGAUCC | -3.14 ± 0.36 | -2.84 ± 0.38
75 | GAUUAGCAAUAUUACGCGGU | -3.5 ± 0.47 | -3.43 ± 0.33

Row | Sequence | self-splicing fitness (ln) (30 °C) | self-splicing fitness (ln) (37 °C)
76 | GUUAAGCAAUAUUACGCUAA | -2.35 ± 0.14 | -1.54 ± 0.15
77 | GUGAAGCAAUAUUACGUACC | -1.07 ± 0.2 | –
78 | UGUCAGCAAUAUUACGAGGC | -1.97 ± 0.26 | -3.1 ± 0.32
79 | AUAUAGCAAUAUUACGAGUA | -2.18 ± 0.2 | -1.04 ± 0.16
80 | AAGGAGCAAUAUUACGUUCA | -1.44 ± 0.077 | -0.0364 ± 0.088
81 | AGUUAGCAAUAUUACGAUCC | 0.593 ± 0.14 | -0.367 ± 0.15
82 | ACACAGCAAUAUUACGGUAA | -3.67 ± 0.21 | -1.18 ± 0.1
83 | AGUGAGCAAUAUUACGGAGU | -2.86 ± 0.3 | -3.09 ± 0.35
84 | CGGUAGCAAUAUUACGGGCG | -0.838 ± 0.12 | 0.0595 ± 0.14
85 | UCUCAGCAAUAUUACGAUGU | -1.07 ± 0.09 | -0.224 ± 0.12
86 | CUAUAGCAAUAUUACGAAAA | – | -2.17 ± 0.29
87 | UAACAGCAAUAUUACGAGUA | -0.835 ± 0.099 | 0.134 ± 0.099
88 | CCGUAGCAAUAUUACGUCCG | 0.211 ± 0.094 | 0.319 ± 0.11
89 | UUGAAGCAAUAUUACGGUUA | -0.344 ± 0.066 | 0.471 ± 0.086
90 | GGCUAGCAAUAUUACGCAAC | -1.61 ± 0.11 | -0.72 ± 0.12
91 | CAAAAGCAAUAUUACGCAAC | -2.59 ± 0.16 | -2.53 ± 0.27
92 | CGACAGCAAUAUUACGGAAU | -2.5 ± 0.24 | -2.54 ± 0.26
93 | GACUAGCAAUAUUACGAUCG | -1.24 ± 0.13 | -0.31 ± 0.21
94 | CAACAGCAAUAUUACGCGCU | -3.18 ± 0.23 | -1.97 ± 0.19
95 | CCUGAGCAAUAUUACGUUCC | -2.52 ± 0.28 | -2.5 ± 0.42
96 | ACCAAGCAAUAUUACGUCAG | -3.58 ± 0.15 | -1.56 ± 0.1
97 | GGAUAGCAAUAUUACGCCCU | -2.08 ± 0.14 | -2.27 ± 0.17
98 | GUCAAGCAAUAUUACGGGUU | -3.26 ± 0.11 | -2.31 ± 0.12
